Bridges are numbered along the chain shown (N, C = ends). Where no end group is shown, it is not given here. [ ]: non-standard residue; d: D form.
B1: rrrrrrrr (IKD00800) (peptide)
peptide: [dR][dR][dR][dR][dR][dR][dR][dR]-NH2
modifications: N-terminus assumed
SMILES: N=C(N)NCCC[C@@H](N)C(=O)N[C@H](CCCNC(=N)N)C(=O)N[C@H](CCCNC(=N)N)C(=O)N[C@H](CCCNC(=N)N)C(=O)N[C@H](CCCNC(=N)N)C(=O)N[C@H](CCCNC(=N)N)C(=O)N[C@H](CCCNC(=N)N)C(=O)N[C@H](CCCNC(=N)N)C(N)=O
B2: C-RSKAKNPLY-RRRRRR-C (Cyclised) (IK14500C) (peptide)
peptide: CRSKAKNPLYRRRRRRC
modifications: disulfide 1-17 (inferred); not fully specified; printed as C-RSKAKNPLY-RRRRRR-C (Cyclised)
B3: rskaknply-rrrrrr (ID94600) (peptide)
peptide: [dR][dS][dK][dA][dK][dN][dP][dL][dY][dR][dR][dR][dR][dR][dR]-NH2
modifications: N-terminus assumed
SMILES: CC(C)C[C@@H](NC(=O)[C@H]1CCCN1C(=O)[C@@H](CC(N)=O)NC(=O)[C@@H](CCCCN)NC(=O)[C@@H](C)NC(=O)[C@@H](CCCCN)NC(=O)[C@@H](CO)NC(=O)[C@H](N)CCCNC(=N)N)C(=O)N[C@H](Cc1ccc(O)cc1)C(=O)N[C@H](CCCNC(=N)N)C(=O)N[C@H](CCCNC(=N)N)C(=O)N[C@H](CCCNC(=N)N)C(=O)N[C@H](CCCNC(=N)N)C(=O)N[C@H](CCCNC(=N)N)C(=O)N[C@H](CCCNC(=N)N)C(N)=O
B4: rrrrrrrrr-ylpnkaksr (IKR81400) (peptide)
peptide: [dR][dR][dR][dR][dR][dR][dR][dR][dR][dY][dL][dP][dN][dK][dA][dK][dS][dR]-NH2
modifications: N-terminus assumed
SMILES: CC(C)C[C@@H](NC(=O)[C@@H](Cc1ccc(O)cc1)NC(=O)[C@@H](CCCNC(=N)N)NC(=O)[C@@H](CCCNC(=N)N)NC(=O)[C@@H](CCCNC(=N)N)NC(=O)[C@@H](CCCNC(=N)N)NC(=O)[C@@H](CCCNC(=N)N)NC(=O)[C@@H](CCCNC(=N)N)NC(=O)[C@@H](CCCNC(=N)N)NC(=O)[C@@H](CCCNC(=N)N)NC(=O)[C@H](N)CCCNC(=N)N)C(=O)N1CCC[C@@H]1C(=O)N[C@H](CC(N)=O)C(=O)N[C@H](CCCCN)C(=O)N[C@H](C)C(=O)N[C@H](CCCCN)C(=O)N[C@H](CO)C(=O)N[C@H](CCCNC(=N)N)C(N)=O
B5: rrrrrrrrrrrrrr (IKD01400) (peptide)
peptide: [dR][dR][dR][dR][dR][dR][dR][dR][dR][dR][dR][dR][dR][dR]-NH2
modifications: N-terminus assumed
SMILES: N=C(N)NCCC[C@@H](N)C(=O)N[C@H](CCCNC(=N)N)C(=O)N[C@H](CCCNC(=N)N)C(=O)N[C@H](CCCNC(=N)N)C(=O)N[C@H](CCCNC(=N)N)C(=O)N[C@H](CCCNC(=N)N)C(=O)N[C@H](CCCNC(=N)N)C(=O)N[C@H](CCCNC(=N)N)C(=O)N[C@H](CCCNC(=N)N)C(=O)N[C@H](CCCNC(=N)N)C(=O)N[C@H](CCCNC(=N)N)C(=O)N[C@H](CCCNC(=N)N)C(=O)N[C@H](CCCNC(=N)N)C(=O)N[C@H](CCCNC(=N)N)C(N)=O

Molecular target: Lck(h) (lymphocyte-specific protein tyrosine kinase) (human, UniProt P06239 1-509, limits assumed)
Sequence (P06239 whole entry): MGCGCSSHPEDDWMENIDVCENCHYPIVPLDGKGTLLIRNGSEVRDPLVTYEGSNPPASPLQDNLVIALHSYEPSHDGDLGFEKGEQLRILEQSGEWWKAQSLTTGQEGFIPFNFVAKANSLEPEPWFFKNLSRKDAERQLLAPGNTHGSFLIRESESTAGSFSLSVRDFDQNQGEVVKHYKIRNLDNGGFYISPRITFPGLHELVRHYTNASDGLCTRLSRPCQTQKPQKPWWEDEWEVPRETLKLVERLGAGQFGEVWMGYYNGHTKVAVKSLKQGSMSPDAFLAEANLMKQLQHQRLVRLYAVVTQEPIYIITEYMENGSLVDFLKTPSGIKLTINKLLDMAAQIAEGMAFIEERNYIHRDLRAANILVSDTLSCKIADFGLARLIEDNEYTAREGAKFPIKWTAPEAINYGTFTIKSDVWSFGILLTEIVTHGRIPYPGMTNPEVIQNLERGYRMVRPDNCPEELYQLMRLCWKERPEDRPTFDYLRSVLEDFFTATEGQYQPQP
Assay: cell-based or functional assay

Binder	Lck activity, percentage relative to control, in vitro kinase assay, peptide 1 µM	Lck activity relative to control (100%), in vitro kinase assay, peptide 1 µM
RSKAKNPLYRRRRRR-NH2 [RSKAKNPLY-RRRRRR (IK14500)]	82%	
B1		80 % Lck activity relative to control
RRRRRRRRRRRR-NH2 [RRRRRRRRRRRR (IK01200)]		401 % Lck activity relative to control
B2	221%	
KKKKKKKKKK-NH2 [KKKKKKKKKK (10Lys)]		161 % increase in Lck activity
RSKAKRRRRRRRRR-NH2 [RSKAK-RRRRRRRRR (IK50900)]	531 % increase in Lck activity	
B3	60 % increase in Lck activity	
RRRRRRRRR-NH2 [RRRRRRRRR (IK00900)]	325%	
B4	616 % increase in Lck activity	
RRRRRRRRRYLPNKAKSR-NH2 [RRRRRRRRR-YLPNKAKSR (IK9R94Y)]	630 % increase in Lck activity	
B5		228 % Lck activity relative to control
RSKAKNPLYRRRRR-NH2 [RSKAKNPLY-RRRRR (IK14400)]	85%	
RSKAK-NH2 [RSKAK (IK5000)]	5 % activation of Lck relative to control	
RSKAKNPLYRRRRRRRRRHHHHHHHHHH-NH2 [RSKAKNPLY-RRRRRRRRR-HHHHHHHHHH (IK14810)]	899 % increase in Lck activity	
RSKAKNPLYRRRRRRRRR-NH2 [RSKAKNPLY-RRRRRRRRR-NH2 (IK14800)]	496%	
RRRRRRRRRSKAKNPLYR-NH2 [RRRRRRRRR-SKAKNPLYR (IK9R94S)]	542 % increase in Lck activity	
RRRRRRRRRHHHHHHHHHH-NH2 [RRRRRRRRR-HHHHHHHHHH (IK00910)]		348 % Lck activity relative to control
RSKAKNPLYRHHHHHHHHHH-NH2 [RSKAKNPLY-RHHHHHHHHHH (IK14010)]	30 % increase in Lck activity	
RSKAKRR-NH2 [RSKAK-RR (IK50200)]	5 % activation of Lck relative to control	
RSKAKNPLYKKKKKKKKK-NH2 [RSKAKNPLY-KKKKKKKKK (IK94K90)]	49 % increase in Lck activity	
HHHHHRSKAKNPLYRRRRRRRRR-NH2 [HHHHH-RSKAKNPLY-RRRRRRRRR (IK11480)]	883 % increase in Lck activity	
